Changes are numbered by the printed parent chain.

In general, Kd refers to the concentration at which binding is half-saturated. A higher Kd goes with lower affinity. Usually koff stands for a measure of how fast the partners let go of each other. Low values mean a long-lived complex, high ones a short-lived complex.

Experiment [1] concerns the target T1, PSGL-1 (P-Selectin Glycoprotein Ligand-1) on cells (human) (UniProt Q14242).
T1 sequence (looked up): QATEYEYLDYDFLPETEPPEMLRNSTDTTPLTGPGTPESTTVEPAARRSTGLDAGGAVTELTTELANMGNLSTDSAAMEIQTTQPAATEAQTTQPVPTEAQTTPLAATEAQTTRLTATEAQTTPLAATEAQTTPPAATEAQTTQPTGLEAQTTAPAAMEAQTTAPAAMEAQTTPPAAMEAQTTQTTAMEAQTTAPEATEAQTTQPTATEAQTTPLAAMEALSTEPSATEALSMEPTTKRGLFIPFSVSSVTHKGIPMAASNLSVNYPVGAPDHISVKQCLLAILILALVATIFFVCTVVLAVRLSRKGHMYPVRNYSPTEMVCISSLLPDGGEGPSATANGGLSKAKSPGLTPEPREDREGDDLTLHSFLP
In words: FACS, whole blood sample #1, lymphocytes, 0.5 µg scFv.

In experiment [2] the target is T1, PSGL-1 (P-Selectin Glycoprotein Ligand-1) on cells (human). In words: FACS, whole blood sample #2, monocytes, 0.5 µg scFv.
The target of a further experiment is glycocalicin (UniProt P07359). The experiment can be described thus: SPR (BIAcore 3000), glycocalicin immobilized on CM5 chip.
glycocalicin, sequence (P07359 17-531 limits assumed): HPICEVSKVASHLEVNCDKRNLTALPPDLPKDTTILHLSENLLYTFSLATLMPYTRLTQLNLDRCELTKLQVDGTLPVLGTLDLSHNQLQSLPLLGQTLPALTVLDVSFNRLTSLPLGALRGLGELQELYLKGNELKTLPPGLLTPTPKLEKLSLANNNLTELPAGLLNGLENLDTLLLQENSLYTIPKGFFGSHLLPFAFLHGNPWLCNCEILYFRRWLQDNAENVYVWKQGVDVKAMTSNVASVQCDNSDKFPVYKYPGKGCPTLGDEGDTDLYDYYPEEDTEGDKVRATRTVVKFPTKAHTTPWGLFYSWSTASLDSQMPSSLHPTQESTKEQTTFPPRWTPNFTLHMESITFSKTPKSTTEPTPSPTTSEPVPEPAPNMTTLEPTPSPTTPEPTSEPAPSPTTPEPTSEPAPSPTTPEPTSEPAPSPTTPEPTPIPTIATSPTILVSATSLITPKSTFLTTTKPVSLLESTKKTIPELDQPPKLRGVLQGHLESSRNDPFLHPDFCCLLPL
Experiment [3] addresses GPIb on human platelets (human) (UniProt P07359). The experiment can be described thus: FACS on platelets, PRP sample #1, 2 µg scFv; PRP sample #1, 2 µg scFv.
In experiment [4] the target is T1, PSGL-1 (P-Selectin Glycoprotein Ligand-1) on cells (human). The experiment can be described thus: FACS, whole blood sample #2, monocytes, 0.1 µg scFv. (In flow cytometry, cells or beads pass a laser one at a time.)
Experiment [5] shares this target. The experiment can be described thus: FACS, whole blood sample #2, lymphocytes, 1 µg scFv.
Experiment [6] shares this target. The experiment can be described thus: FACS, whole blood sample #2, granulocytes, 0.5 µg scFv.
The target of experiment [7] is GPIb on human platelets (human) (UniProt P07359). In words: FACS on platelets, PRP sample #1, 1 µg scFv; PRP sample #1, 1 µg scFv.
GPIb on human platelets (human), sequence (P07359 17-652): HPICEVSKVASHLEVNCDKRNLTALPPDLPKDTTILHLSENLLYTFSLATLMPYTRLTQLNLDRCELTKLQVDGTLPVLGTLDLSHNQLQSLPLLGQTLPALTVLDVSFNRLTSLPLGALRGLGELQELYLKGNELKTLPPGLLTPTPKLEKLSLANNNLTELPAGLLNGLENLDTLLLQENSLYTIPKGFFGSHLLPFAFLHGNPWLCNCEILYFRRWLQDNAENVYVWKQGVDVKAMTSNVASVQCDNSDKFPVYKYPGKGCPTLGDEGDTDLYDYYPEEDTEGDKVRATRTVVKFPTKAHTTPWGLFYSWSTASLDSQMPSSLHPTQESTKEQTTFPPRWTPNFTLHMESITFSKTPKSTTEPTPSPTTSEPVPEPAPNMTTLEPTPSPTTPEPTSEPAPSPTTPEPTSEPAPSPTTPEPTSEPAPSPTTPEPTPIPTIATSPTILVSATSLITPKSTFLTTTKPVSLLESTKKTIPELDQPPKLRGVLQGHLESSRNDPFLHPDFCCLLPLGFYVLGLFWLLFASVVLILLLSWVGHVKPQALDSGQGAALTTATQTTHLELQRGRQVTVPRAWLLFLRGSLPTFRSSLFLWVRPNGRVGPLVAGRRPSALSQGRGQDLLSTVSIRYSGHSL
For experiment [8], the target named is T1, PSGL-1 (P-Selectin Glycoprotein Ligand-1) on cells (human). The experiment can be described thus: FACS, whole blood sample #1, granulocytes, 1 µg scFv.
The target is the same in experiment [9]. The experiment can be described thus: FACS, whole blood sample #1, monocytes, 0.5 µg scFv.
Experiment [10] has as its target GPIb on human platelets (human) (UniProt P07359). In words: FACS on platelets, PRP sample #2, 1 µg scFv; PRP sample #2, 1 µg scFv.
The target of experiment [11] is T1, PSGL-1 (P-Selectin Glycoprotein Ligand-1) on cells (human). In words: FACS, whole blood sample #2, granulocytes, 0.1 µg scFv.
The target is the same in experiment [12]. In words: FACS, whole blood sample #1, lymphocytes, 1 µg scFv.
Experiment [13] has as its target T2, PSGL-1 (residues 42-58) derived peptide sulfated at 3rd tyrosine position.
T2 sequence (peptide, sulfated at 3rd tyrosine position): QATEYEYLDYDFLPETE
The experiment can be described thus: ELISA on coated peptide. Background: ELISA stands for enzyme-linked immunosorbent assay.

Experiment [14] concerns the target T3, PSGL-1 (residues 42-58) derived peptide sulfated at 2nd tyrosine position.
T3 sequence (peptide, sulfated at 2nd tyrosine position): QATEYEYLDYDFLPETE
In words: ELISA on coated peptide.

The target of experiment [15] is T4, GPIb (residues 268-285) derived peptide sulfated at 1st tyrosine position.
T4 sequence (peptide, sulfated at 1st tyrosine position): GDEGDTDLYDYYPEEDTE
In words: ELISA on coated peptide.

Experiment [16] deals with T5, GPIb (residues 268-285) derived peptide sulfated at 3rd tyrosine position.
T5 sequence (peptide, sulfated at 3rd tyrosine position): GDEGDTDLYDYYPEEDTE
The experiment can be described thus: ELISA on coated peptide.

The target of experiment [17] is T6, CCR5 (residues 1-18) derived peptide sulfated at 3rd tyrosine position.
T6 sequence (peptide, sulfated at 3rd tyrosine position): MDYQVSSPIYDINYYTSE
The experiment can be described thus: ELISA on coated peptide.

Experiment [18] has as its target T7, CCR5 (residues 1-18) derived peptide sulfated at 2nd tyrosine position.
T7 sequence (peptide, sulfated at 2nd tyrosine position): MDYQVSSPIYDINYYTSE
The experiment can be described thus: ELISA on coated peptide.

Experiment [19] has as its target T8, PSGL-1 (residues 42-58) derived peptide sulfated at 1st tyrosine position.
T8 sequence (peptide, sulfated at 1st tyrosine position): QATEYEYLDYDFLPETE
The experiment can be described thus: ELISA on coated peptide.

For experiment [20], the target named is T9, CCR5 (residues 1-18) derived peptide sulfated at 1st tyrosine position.
T9 sequence (peptide, sulfated at 1st tyrosine position): MDYQVSSPIYDINYYTSE
The experiment can be described thus: ELISA on coated peptide.

The target in experiment [21] is T1, PSGL-1 (P-Selectin Glycoprotein Ligand-1) on cells (human). The experiment can be described thus: FACS, whole blood sample #1, monocytes, 0.1 µg scFv.
In experiment [22] the target is GPIb on human platelets (human) (UniProt P07359). The experiment can be described thus: FACS on platelets in PRP, 1 µg scFv; mean of PRP samples #1 and #2, 1 µg scFv.
Experiment [23] concerns the target GPIb on guinea pig platelets (guinea pig). In words: cell-based or functional assay.
For experiment [24], the target named is T1, PSGL-1 (P-Selectin Glycoprotein Ligand-1) on cells (human). In words: FACS on ML-2 cells in 50% plasma, purified scFv.
Experiment [25] has the same target. The experiment can be described thus: FACS, whole blood sample #1, granulocytes, 0.1 µg scFv.
The target is the same in experiment [26]. The experiment can be described thus: FACS, whole blood sample #1, lymphocytes, 0.1 µg scFv.
Experiment [27] shares this target. In words: FACS, whole blood sample #2, lymphocytes, 0.1 µg scFv.
For experiment [28] the target is unchanged. In words: FACS, whole blood sample #1, monocytes, 1 µg scFv.
For experiment [29] the target is unchanged. The experiment can be described thus: FACS, whole blood sample #1, granulocytes, 0.5 µg scFv.
Experiment [30] shares this target. The experiment can be described thus: FACS, whole blood sample #2, lymphocytes, 0.5 µg scFv.
The target in experiment [31] is GPIb on human platelets (human) (UniProt P07359). In words: FACS on platelets, PRP sample #2, 2 µg scFv; PRP sample #2, 2 µg scFv.
The target of experiment [32] is T1, PSGL-1 (P-Selectin Glycoprotein Ligand-1) on cells (human). In words: FACS on ML-2 cells in PBS, purified scFv.
For experiment [33] the target is unchanged. The experiment can be described thus: FACS, whole blood sample #2, granulocytes, 1 µg scFv.
Experiment [34] has the same target. In words: FACS, whole blood sample #2, monocytes, 1 µg scFv.
The target of experiment [35] is GPIb on guinea pig platelets (guinea pig). The experiment can be described thus: FACS on guinea pig platelets.
Experiment [36] concerns the target T10, CCR5 (residues 1-18) derived peptide, non-sulfated.
T10 sequence (peptide): MDYQVSSPIYDINYYTSE
In words: ELISA on coated peptide.

In experiment [37] the target is T11, PSGL-1 (residues 42-58) derived peptide, non-sulfated.
T11 sequence (peptide): QATEYEYLDYDFLPETE
In words: ELISA on coated peptide.

The target of experiment [38] is T12, GPIb (residues 268-285) derived peptide, non-sulfated.
T12 sequence (peptide): GDEGDTDLYDYYPEEDTE
In words: ELISA on coated peptide.

B1: S15 scFv (scFv)
scFv: EVQLVESGGGVVRPGGSLRLSCAASGFTFDLNPKVKHMWVRQAPGKGLEWVSGINWNGGSTGYADSVKGRFTISRDNAKNSLYLQMNSLRAEDTAVYYCARLRRPSIWGQGTLVTVSRGGGGSGGGGSGGGGSSELTQDPAVSVALGQTVRITCQGDSLRSYYASWYQQKPGQAPVLVIYGKNNRPSGIPDRFSGSSSGNTASLTITGAQAEDEADYYCNSRDSSGNHVVFGGGTKLTVLGAAAEQKLISEEDLNGAA
With B1, the Geo Mean was 81 in experiment [1]; 248 in [2]; 120 in experiment [3]; 69 in experiment [4]; 112 in experiment [5]; 151 in [6]. For the same molecule, the Geo Mean in [7] was 30; in experiment [8], 150; in [9] it was 192; in [10], 23; in experiment [11], 44; in [12], 120. In addition, the Geo Mean came to 56 in experiment [21]; 26 in experiment [25]; 36 in experiment [26]; 18 in experiment [27]; 290 in experiment [28]; 100 in experiment [29]. The Geo Mean in experiment [30] was 78; in experiment [31], 68; in experiment [33], 220; in experiment [34], 340. Moreover, in the experiment with glycocalicin, the equilibrium dissociation constant (Kd) amounted to 180 nM. The molecule further yielded a koff in the experiment with glycocalicin of 0.43 s⁻¹. Also, the ELISA reading at 450 nm in experiment [13] is 0.6; in experiment [14], 0.2; in experiment [15] it was 0.6; in experiment [16], 0.3; in experiment [17], 0.16; in experiment [18], 0.3. Further, the ELISA reading at 450 nm is 0.02 in experiment [19] and 0.12 in experiment [20]. In experiment [22], the average geo mean of both PRP samples amounted to 26. Moreover, the inhibition of guinea pig platelet aggregation, IC50 in experiment [23] lay within 80 to 160 µg/mL. The fold binding compared to L32 and Y1 in [24] is greater than 10 fold; in experiment [32], greater than 100 fold.

B2: S11 scFv (scFv, from a related filing)
scFv: B1 scFv with R104Y, S106F, I107F
In experiment [35], B2 came in with a fold binding capacity relative to Y1 of 25 fold. Further, the ELISA reading at 450 nm came out at 0.7 in [13]; 0.08 in experiment [36]; 0.12 in [14]; 0.01 in [37]; 0.6 in experiment [15]; 0.3 in experiment [16]. For the same molecule, the ELISA reading at 450 nm in [17] was determined as 0.11; in [18], 0.7; in experiment [19] it was 0.16; in experiment [20] it was 0.12; in [38], 0.1.

B3: S1 scFv (scFv, from a related filing)
scFv: B1 scFv with R104P, S106F, I107L
B3: the fold binding capacity relative to Y1 in [35] stood at 25 fold. In addition, the ELISA reading at 450 nm came out at 0.8 in experiment [13]; 0.06 in experiment [36]; 0.08 in experiment [14]; 0.07 in experiment [37]; 0.8 in experiment [15]; 0.15 in experiment [16]. In addition, the ELISA reading at 450 nm worked out at 0.07 in [17]; 0.3 in [18]; 0.1 in [19]; 0.07 in experiment [20]; 0.07 in experiment [38].

The values are drawn from patent US20050266009A1.
